Measurements as given in patent US20030125296, “Insulin-responsive DNA binding protein-1 and methods to regulate insulin-responsive genes” (published 2003).

Key:
[1] = target: T1, IRDBP-1 C-terminal 1503 bp coding region (Trx-IRDBP-1) (Rattus norvegicus, UniProt Q5ZQU0 SEQ:548-1047); test: EMSA; self-competed; supershifted by anti-IRDBP-1 cAb; printed probe sequence from Example 7; conditions: tags: His6-thioredoxin fusion (pET-32a)
Excerpt: (§1) This band was competed by the IGFBP-3 IRE, but not by the unrelated NFκB oligonucleotide (FIG. 26, left panel). In addition, the gel-shift band was supershifted with the anti-IRDBP-1 cAb antibody, but not with preimmune serum (FIG. 26, right panel).

[2] = target: T1, IRDBP-1 C-terminal 1503 bp coding …; test: competition; did not compete IGFBP-3 IRE band; conditions: tags: His6-thioredoxin fusion (pET-32a)
Excerpt: as §1

T1 sequence (Q5ZQU0 904-1403): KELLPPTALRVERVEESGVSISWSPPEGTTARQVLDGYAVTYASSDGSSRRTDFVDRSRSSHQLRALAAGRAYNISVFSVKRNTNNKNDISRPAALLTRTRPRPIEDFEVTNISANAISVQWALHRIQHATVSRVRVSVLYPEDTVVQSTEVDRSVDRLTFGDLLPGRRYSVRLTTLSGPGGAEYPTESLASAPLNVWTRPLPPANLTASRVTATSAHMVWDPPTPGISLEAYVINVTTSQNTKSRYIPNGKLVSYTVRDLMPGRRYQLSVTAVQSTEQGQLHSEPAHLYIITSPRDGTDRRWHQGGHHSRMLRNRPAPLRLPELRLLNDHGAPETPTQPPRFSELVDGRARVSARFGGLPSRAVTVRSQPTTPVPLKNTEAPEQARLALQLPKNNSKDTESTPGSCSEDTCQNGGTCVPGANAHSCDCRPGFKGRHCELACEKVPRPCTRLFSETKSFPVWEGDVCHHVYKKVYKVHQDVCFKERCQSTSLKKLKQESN

B1: IGFBP-3 IRE oligo (Example 7) (dsDNA)
DNA 1: AATTCAAGGGTATCCAGGAAAGTCTCCTTCAAG
DNA 2: CTTGAAGGAGACTTTCCTGGATACCCTTGAATT
binding result [1]: binds

B2: NFkB consensus (dsDNA)
DNA 1: GGGACTTTCCGGGACTTTCC
DNA 2: GGAAAGTCCCGGAAAGTCCC
binding result [2]: no binding
